Source: patent US20020031818A1, “Modification of Mdm2 activity” (priority 2000, published 2002)

What was measured:
Assay type in all cases: cell-based
Mdm2 [1] = assay: Pulse-chase half-life of Mdm2 wt or S218A in normal human fibroblasts
Experimental: (§1) FIG. 16A-16F. A. Activation of p38 increases Mdm2 ubiquitination in vivo. EJ cells were transfected with indicated plasmids. 36 h after transfection cells were harvested and Mdm2 was immunoprecipitated (2A10 antibodies). […] Middle panels show expression levels of Mdm2 and p19^ARF. Lower panels depict phospho-and total p38 levels. B. Mutation at Ser218 of Mdm2 abolishes p38 induced Mdm2 ubiquitination. Normal human fibroblasts were transfected with indicated plasmids. 36 h after transfection cells were harvested and lysed. Mdm2 was immunoprecipitated and proteins were separated on a 8% SDS-PAGE. […] C. Mutation at Ser218 of Mdm2 abrogates p19^ARF-induced Mdm2 degradation. […] Upper panels depict Mdm2-Sumo conjugates (detected via Sumo-1 anitbodies), as well as the 75 kD and 90 kD forms of Mdm2 (detected via Mdm2 antibodies). […] To monitor possible changes in amount of p19 bound to Mdm2 association was monitored using normalized Mdm2 levels at the indicated time-points after UV-treatment.
(§2) Normal human fibroblasts (NHF) were transfected with wt or S218A forms of Mdm2 expression vectors (4 μg). ^35S-methionine (1 mCi) was added to the cell cultures 24 h after transfection for 5 h (pulse) followed by chase (2 mM cold methionine) for the indicated time points. […] Immunoprecipated Mdm2 was washed, separated on 10% SDS-PAGE, and analyzed by autoradiography.

Mdm2 [2] = biological target: T1, Mdm2 (Homo sapiens, UniProt Q00987); assay: In vivo sumoylation of Mdm2 in p53/Mdm2 double null cells; design: expressed in transfected cells; host or cells: p53/Mdm2 double null cells; conditions: Flag-Mdm2, HA-SUMO, p19 wt 1.5 μg each; MG132
T1 sequence (Q00987 whole entry): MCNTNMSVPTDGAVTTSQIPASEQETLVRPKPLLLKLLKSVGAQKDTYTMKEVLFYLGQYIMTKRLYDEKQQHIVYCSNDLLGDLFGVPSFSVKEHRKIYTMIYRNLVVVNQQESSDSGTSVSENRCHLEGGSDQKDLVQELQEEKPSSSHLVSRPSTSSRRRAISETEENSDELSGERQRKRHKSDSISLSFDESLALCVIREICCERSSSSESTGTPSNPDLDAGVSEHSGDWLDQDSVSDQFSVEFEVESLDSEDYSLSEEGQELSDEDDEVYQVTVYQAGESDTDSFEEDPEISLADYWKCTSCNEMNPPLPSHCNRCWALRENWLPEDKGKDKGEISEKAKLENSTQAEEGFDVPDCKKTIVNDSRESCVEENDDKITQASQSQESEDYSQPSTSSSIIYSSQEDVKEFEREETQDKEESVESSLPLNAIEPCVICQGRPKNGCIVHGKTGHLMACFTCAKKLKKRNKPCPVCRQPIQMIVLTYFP
Experimental: FIGS. 10A-10D. A. Time dependent Mdm2 sumoylation in vitro. Bacterially expressed and purified GST-Mdm2 was subjected to in vitro sumoylation reaction in the presence of E1, Ubc9, and ^35S-Sumos. Reaction was terminated after 10,30,50 or 60 minutes, Proteins were separated on 8% gel, Commassie stained, dryed and exposed overnight (upper panel). Lower panel depicts Commassie blue staining of Mdm2 forms. B. A peptide corresponding to the Ubc-9 binding site on Mdm2 decreases Mdm2 in vitro sumoylation of Mdm2 in a time-dependent manner. (Upper part) The specific Ubc-9-binding site peptide or a nonspecific peptide was added to the reaction for the indicated time periods. […] The lower panel depicts a Coomassie staining visualizing relative amounts of sumoylated and non-sumoylated forms of purified GST-Mdm2. C. The Mdm2 sumoylation assay was carried out in the presence of Ubc-9-binding site peptide (mu9bs) or a nonspecific peptide ([…]) which were added to the reaction at the indicated concentrations. […] D. A peptide corresponding to the Ubc-9 binding site on Mdm2 decreases Mdm2 sumoylation in vivo. […] Immunoprecipitated Mdm2 levels were detected using 2A10 antibodies (top). […]
FIG. 13A-13E. […] (Left) Immunoprecipitated Mdm2 was detected using monoclonal Mdm2 antibodies (2A10, left). […]

Mdm2 [3] = biological target: T1, Mdm2; assay: Pulse-chase half-life of Mdm2 wt or S218A in normal human fibroblasts; design: Normal human fibroblasts (TIG) were transfected with HA-Ub and wt or mutant Ubc9 plasmids as indicated; endogenous in cells; host or cells: normal human fibroblasts (TIG)
Experimental: as §1, §2

B1: p19^ARF: Mdm2-regulating protein; in vitro translated, bacculovirus-expressed or transfected (protein)
chain: MGRRFLVTVRIQRAGRPLQERVFLVKFVRSRRPRTASCALAFVNMLLRLERILRRGPHRNPGPGDDDGQRSRSSSSAQLRCRFELRGPHYLLPPGARRSAGRLPGHAGGAARVRGSAGCARCLGSPAARLGPRAGTSRHRAIFAFRWVLFVFRWVVFVYRWERRPDRRA
With B1 the “effect on half-life of Mdm2 S218A mutant” value (Mdm2 [1]) was “minimal effects”, the “Mdm2 sumoylation in Mdm2/p53-/- cells upon p19ARF co-expression” value (Mdm2 [2]) was “reduced the degree of Mdm2 sumoylation” and the “effect on half-life of wt Mdm2” value (Mdm2 [3]) was “efficiently shorten Mdm2 half-life”.
